# Fewer inactive variants are shown than the library holds.
# B1: TPR 5TU (parent)
# chain: GGAUCUUCUCGAUCUAACAAAAAAGACAAAUCUGCCACAAAGCUUGAGAGCAUCUUCGGAUGCAGAGGCGGCAGCCUUCGGUGGCGCGAUAGCGCCAACGUUCUCAACUAUGACACGCAAAACGCGUGCUCCGUUGAAUGGAGUUUAUCAUG
# Variants of: B1
# Assay: polymerase ribozyme fitness, log enrichment relative to wild type (log ratio); higher = more active; in vitro selection for triplet polymerase activity
# In short: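 Mutant libraries were PCR-built and transcribed for each subunit of a heterodimeric triplet polymerase ribozyme and selected for one round in triplicate at −7 °C, frozen, before gel excision of extended constructs and streptavidin-bead capture. Input and output libraries were Illumina-sequenced, keeping genotypes with ≥10 input reads and ≥1 read per output. Fitness is a logarithmic ratio of genotype to wild-type enrichment, in base 2, using inverse-variance-weighted replicate averages.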
row,Variant,polymerase ribozyme fitness (log ratio)
1,U4G G25A U45G C87A C99A C103U C105G U139G G143A,-4.11
2,A19U G58A G94U C116A A119C,-0.758
3,U102G C116A,-2.07
4,G141C,-0.0848
5,G48A A52G G83U U101A C131A U148A,≤ -4.2
6,C57A G86A U146G,-1.4
7,A12G A49C G74A C96U U102G G112U C125U,≤ -4.2
8,G50U G126A G141C,-4.02
9,U61G C96U,-1.29
10,A52G U53A C54U C93G G112U,≤ -4.2
11,A3U C54U,-1.57
12,G58U A64G A91G A113U U135A,≤ -4.2
13,A39U C51U C54U A60G U82G A98C,-3.88
14,G50U G84A A91U C116A,≤ -4.2
15,G84A C93U C108G A137U,≤ -4.2
16,C54A C125U,-3.73
17,A41G U44A U61C C75U A142C,≤ -4.2
18,A20G A26U A39C G86C A150C,≤ -4.2
19,G74C U90C A91C U104G U130A,≤ -4.2
20,A29U G46U G59A G70A A89U G117U U148A,≤ -4.2
21,A16U U44G G48A C87U U102G C131U C132G,≤ -4.2

row,Variant,polymerase ribozyme fitness (log ratio)
1,U55G C85A,-2.4
2,U6G C27U A49C C79G A89U C93U C132A,≤ -4.2
3,U31C U44A C54A C76G C95G C105G A107G,-4.01
4,G50C C93G C99U,≤ -4.2
5,U33C G59A A60U U145G,-4
6,A3G A89G C93U A137C A138U G140A,≤ -4.2
7,U7A A22C A24U C54G G83A,≤ -4.2
8,A17G G58A,1.26
9,C18A A19U C76A C85U C99U U104G A110G G143C,≤ -4.2
10,C27G A29G C95U,≤ -4.2
11,C8G C85U G88U U145C,≤ -4.2
12,A47G C114U,-2.4
13,U13C A24C U45G G84U U135C,≤ -4.2
14,G42A A89G C93U C125U G141U,≤ -4.2
15,C79A C116A,-3.87
16,U13C A19C A89U C95U U146G A150U,-2.94
17,A52G C93U C96U G136C A138G U146A,≤ -4.2
18,U55A C69A U77C A89G,≤ -4.2
19,C93G A119C,-3.47
20,A39U A64G G86A A89G U135A,≤ -4.2
21,G74A U148A,≤ -4.2

row,Variant,polymerase ribozyme fitness (log ratio)
1,G59C U101G,-0.121
2,A37G C95U,-2.43
3,A20G C95A A110G,-3.46
4,C95U U145A,0.0594
5,G46U G59A A60C,-2.54
6,G83U C87G C99U,≤ -4.2
7,A12G A30G,-2.97
8,A40U A52G G58C C75U G141U,-2.07
9,U44A A47U C72G G86C A91C,≤ -4.2
10,C35G A89C C96G,-4.02
11,C75G G88A U146G,≤ -4.2
12,C36A A66C G81A A91C C93U,≤ -4.2
13,C76U C85A G141C U148C,-3.74
14,C38U A52G C93G G117U,-3.91
15,U15A C35U U55A C96G A107U U135C,≤ -4.2
16,A49G G58A,-0.296
17,A41U A66C G88A A113C G143A U146C,≤ -4.2
18,C27U U61G A64U C96U,≤ -4.2
19,C43U U56A C87A G152U,≤ -4.2
20,G59C G81A,-2.07
21,C5G U9A C54U U146C,-2.79

row,Variant,polymerase ribozyme fitness (log ratio)
1,C75U A91G,-3.07
2,G11C C105U C118G,-1.92
3,U61A G68A,≤ -4.2
4,A23C A41C C75A G84A A115U G152A,≤ -4.2
5,A29G A37U G94C G141U,≤ -4.2
6,G140A G143U,≤ -4.2
7,A26G A52G U90G U135A G136C,≤ -4.2
8,A28U C96U,-3.66
9,A30C C93A A97G,≤ -4.2
10,U13G C87U,-1.62
11,A19G U56A G86A G141U,-1.64
12,U55A U78A C85U C93U,≤ -4.2
13,U77C G136U C149G,-4.11
14,C93U G136C,-4.02
15,C54U C114A A137U,-3.59
16,C5U,0.998
17,G42C C95A,≤ -4.2
18,A24U U53A C57A C95A C123G,0.167
19,C14G A23U A28C A40G G42C A89U C116G G124C U134G,≤ -4.2
20,U45G G68U,≤ -4.2

# From the RNAGym collection of RNA variant scans (doi:10.1073/pnas.2313332121)
